Drawing on PMC7484162, this text covers Kd for one substance.

The target of this assay is CD33 (UniProt P20138).
Chain of UniProt P20138 (P20138 18-364): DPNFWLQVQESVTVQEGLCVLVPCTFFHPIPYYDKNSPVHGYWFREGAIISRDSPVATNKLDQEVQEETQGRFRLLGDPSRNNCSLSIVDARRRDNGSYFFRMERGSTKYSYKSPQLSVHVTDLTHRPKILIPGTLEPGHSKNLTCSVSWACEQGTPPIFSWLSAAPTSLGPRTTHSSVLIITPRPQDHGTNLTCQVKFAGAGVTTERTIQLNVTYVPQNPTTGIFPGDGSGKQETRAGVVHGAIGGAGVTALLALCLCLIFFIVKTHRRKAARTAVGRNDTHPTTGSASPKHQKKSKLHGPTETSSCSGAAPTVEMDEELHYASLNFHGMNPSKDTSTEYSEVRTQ

One may read the Kd as the concentration at which binding is half-saturated. Lower therefore signals a tighter complex. “cam16-wt15–33 TriKE (second-generation Tri-specific Killer Engager) (from UniProt P40933 49-162)” came in with a Kd of 25.6 nM.
